From PMC4416878

Experiments:
[1] = molecular target: Golgi anti-apoptotic protein (GAAP) from camelpox virus, wild type, purified (camelpox virus (CMLV)); test: SEC
[2] = molecular target: Golgi anti-apoptotic protein (GAAP) from vaccinia virus strain Evans, purified (vaccinia virus (VACV) strain Evans); test: SEC

Golgi anti-apoptotic protein (GAAP) from camelpox virus, wild type, purified (natural protein)
percent of protein oligomeric [1]: 84% | percent of total protein in oligomeric states (% of total protein) [1]: 87

Golgi anti-apoptotic protein (GAAP) from vaccinia virus strain Evans, purified (natural protein)
percent of total protein in oligomeric states (% of total protein) [2]: 64
